# T1: Spy D26K (UniProt P77754 24-161, D26K)
# T1 construct: source: E. coli BL21 (DE3), purified (Ni-NTA, cation exchange, SEC); not shown: His6, N-terminal, cleaved; SUMO, N-terminal, cleaved
# T1 sequence (looked up): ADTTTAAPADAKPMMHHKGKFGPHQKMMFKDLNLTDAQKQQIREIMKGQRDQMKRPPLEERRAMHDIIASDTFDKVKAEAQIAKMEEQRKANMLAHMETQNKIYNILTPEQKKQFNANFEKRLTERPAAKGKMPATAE
# T2: Spy_(27-124) (UniProt P77754 50-147)
# T2 construct: source: E. coli BL21 (DE3), purified (Ni-NTA, cation exchange, SEC); not shown: His6, N-terminal, cleaved; SUMO, N-terminal, cleaved
# T2 sequence (looked up): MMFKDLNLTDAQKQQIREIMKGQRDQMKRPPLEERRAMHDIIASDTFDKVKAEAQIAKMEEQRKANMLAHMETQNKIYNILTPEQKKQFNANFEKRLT
# T3: Spy_(29-127) (UniProt P77754 52-150)
# T3 construct: Spy chaperone, residues 29-127; source: E. coli BL21 (DE3), purified (Ni-NTA, cation exchange, SEC); not shown: His6, N-terminal, cleaved; SUMO, N-terminal, cleaved
# T3 sequence (looked up): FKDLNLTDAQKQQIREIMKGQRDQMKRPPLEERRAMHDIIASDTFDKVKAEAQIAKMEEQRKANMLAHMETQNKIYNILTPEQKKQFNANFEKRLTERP
# T4: Spy_(1-124) (UniProt P77754 24-147)
# T4 construct: source: E. coli BL21 (DE3), purified (Ni-NTA, cation exchange, SEC); not shown: His6, N-terminal, cleaved; SUMO, N-terminal, cleaved
# T4 sequence (looked up): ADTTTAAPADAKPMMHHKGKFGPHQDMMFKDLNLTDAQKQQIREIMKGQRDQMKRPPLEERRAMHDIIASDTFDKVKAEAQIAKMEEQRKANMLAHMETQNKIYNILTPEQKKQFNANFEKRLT
# T5: Spy_(21-127) (UniProt P77754 44-150)
# T5 construct: Spy chaperone, residues 21-127; source: E. coli BL21 (DE3), purified (Ni-NTA, cation exchange, SEC); not shown: His6, N-terminal, cleaved; SUMO, N-terminal, cleaved
# T5 sequence (looked up): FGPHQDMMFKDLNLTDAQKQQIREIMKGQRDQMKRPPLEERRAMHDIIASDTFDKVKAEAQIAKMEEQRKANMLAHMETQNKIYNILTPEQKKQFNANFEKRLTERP
# T6: Spy_(24-130) (UniProt P77754 47-153)
# T6 construct: Spy chaperone, residues 24-130; source: E. coli BL21 (DE3), purified (Ni-NTA, cation exchange, SEC); not shown: His6, N-terminal, cleaved; SUMO, N-terminal, cleaved
# T6 sequence (looked up): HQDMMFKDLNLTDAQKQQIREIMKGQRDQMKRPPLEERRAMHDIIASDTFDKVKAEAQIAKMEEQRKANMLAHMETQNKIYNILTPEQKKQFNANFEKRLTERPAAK
# T7: Spy_(24-124) (UniProt P77754 47-147)
# T7 construct: source: E. coli BL21 (DE3), purified (Ni-NTA, cation exchange, SEC); not shown: His6, N-terminal, cleaved; SUMO, N-terminal, cleaved
# T7 sequence (looked up): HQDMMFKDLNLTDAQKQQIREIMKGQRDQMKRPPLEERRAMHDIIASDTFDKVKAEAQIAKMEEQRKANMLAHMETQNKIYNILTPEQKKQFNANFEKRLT
# T8: Spy_(27-130) (UniProt P77754 50-153)
# T8 construct: Spy chaperone, residues 27-130; source: E. coli BL21 (DE3), purified (Ni-NTA, cation exchange, SEC); not shown: His6, N-terminal, cleaved; SUMO, N-terminal, cleaved
# T8 sequence (looked up): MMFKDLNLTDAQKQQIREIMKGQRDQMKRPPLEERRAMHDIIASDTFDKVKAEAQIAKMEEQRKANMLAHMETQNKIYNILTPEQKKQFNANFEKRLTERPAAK
# B1: Im7 H40W L53A I54A (natural protein)
# chain: MELKNSISDYTEAEFVQLLKEIEKENVAATDDVLDVLLEWFVKITEHPDGTDAAYYPSDNRDDSPEGIVKEIKEWRAANGKPGFKQG
# modifications: biotin (EZ-link NHS-biotin, 1:1 molar ratio of biotin to protein)
# notes: Im7 (colicin E7 immunity protein) with H40W L53A I54A; Spy was made with an N-terminal His6-SUMO tag that was cleaved; also called Im7AAW; partially folded client; source: purified by a similar procedure to Spy
# Key:
# Test in all cases: BLI; Octet RED96; client biotinylated and loaded on streptavidin sensors; Spy or Spy variant in solution at 0.25, 0.5, 1, 1.5 and 2 μM; 40 mM HEPES, 150 mM NaCl, pH 7.5; Kd calculated as koff/kon
# Details in all cases: both partners purified
# Spy D26K = biological target: T1, Spy D26K
# Spy_(27-124) = biological target: T2, Spy_(27-124)
# Procedure, shortened: (§1)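 Client proteins were biotinylated with EZ-link NHS-biotin at a 1:1 molar ratio, loaded onto streptavidin sensors, and measured by biolayer interferometry on an Octet RED96. The loaded sensors were dipped into 40 mM HEPES, 150 mM NaCl, pH 7.5 holding the analyte protein at 0.25, 0.5, 1, 1.5 or 2 μM, then moved to buffer without it. Fitting the wavelength-shift association and dissociation curves in SigmaPlot 12.0 gave the observed association rate and koff, kon was taken from the observed rate plotted against analyte concentration, and Kd was calculated as koff/kon.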
# Spy_(29-127) = biological target: T3, Spy_(29-127)
# Procedure, shortened: as §1
# Spy_(1-124) = biological target: T4, Spy_(1-124)
# Procedure, shortened: as §1
# Spy_(21-127) = biological target: T5, Spy_(21-127)
# Procedure, shortened: as §1
# Spy_(24-130) = biological target: T6, Spy_(24-130)
# Procedure, shortened: as §1
# Spy_(24-124) = biological target: T7, Spy_(24-124)
# Procedure, shortened: as §1
# Spy_(27-130) = biological target: T8, Spy_(27-130)
# Procedure, shortened: as §1
binder,measurement,setting,value
B1,Kd,Spy D26K,257 nM
same,koff,Spy_(27-124),0.089 s⁻¹
same,koff,Spy_(29-127),0.095 s⁻¹
same,koff,Spy_(1-124),0.188 s⁻¹
same,koff,Spy_(21-127),0.512 s⁻¹
same,koff,Spy_(24-130),0.3 s⁻¹
same,koff,Spy_(24-124),0.423 s⁻¹
same,koff,Spy_(27-130),0.092 s⁻¹
